Data as given in article PMC5454376 (2017).

B1: Human His-Gαi3 WT [human] / Fluorescein-labelled RGS12 GoLoco peptide (residues 1,185–1,221) [modified: 5,6-carboxyfluorescein coupled to the resin-bound peptide after chain elongation; 5,6-carboxyfluorescein coupled to the resin-bound … (parent complex)
chain 1: MGCTLSAEDKAAVERSKMIDRNLREDGEKAAKEVKLLLLGAGESGKSTIVKQMKIIHEDGYSEDECKQYKVVVYSNTIQSIIAIIRAMGRLKIDFGEAARADDARQLFVLAGSAEEGVMTPELAGVIKRLWRDGGVQACFSRSREYQLNDSASYYLNDLDRISQSNYIPTQQDVLRTRVKTTGIVETHFTFKDLYFKMFDVGGQRSERKKWIHCFEGVTAIIFCVALSDYDLVLAEDEEMNRMHESMKLFDSICNNKWFTETSIILFLNKKDLFEEKIKRSPLTICYPEYTGSNTYEEAAAYIQCQFEDLNRRKDTKEIYTHFTCATDTKNVQFVFDAVTDVIIKNNLKECGLY
chain 2: DEAEEFFELISKAQSNRADDQRGLLRKEDLVLPEFLR

Variants of: B1
Assay: fluorescence polarisation

| Kd | Variant |
| --- | --- |
| 176 nM | chain 1 L39A |
| 77 nM | chain 1 N256A |
| 63 nM | chain 1 W258F |
| 119 nM | chain 1 L36A |
| 80 nM | chain 1 L37A |
| 86 nM | chain 1 K257A |
| 83 nM | chain 1 I184A |
| 551 nM | chain 1 F215A |
